These results are taken from patent publication US20180305451A1 (COMPUGEN, published 2018).

Changes are numbered by the printed parent chain.

T1: mouse HIDE1 (mouse, UniProt Q75VT8 22-222)
T1 construct: Endogenous on EL4, YAC-1, J774A.1/J774A.2 cells; also called AB124611; mHIDE1
T1 sequence: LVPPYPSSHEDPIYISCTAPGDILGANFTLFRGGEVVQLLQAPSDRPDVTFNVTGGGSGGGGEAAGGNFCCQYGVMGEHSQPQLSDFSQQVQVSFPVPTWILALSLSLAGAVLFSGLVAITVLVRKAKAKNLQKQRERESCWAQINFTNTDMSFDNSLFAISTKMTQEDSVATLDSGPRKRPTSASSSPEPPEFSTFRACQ

T2: human HIDE1 (human, UniProt A8MVS5 20-230)
T2 construct: Endogenous on U937, HL-60, THP-1 cells, blood monocytes, AML blasts and dendritic cells; also called C19orf38; hHIDE1
T2 sequence: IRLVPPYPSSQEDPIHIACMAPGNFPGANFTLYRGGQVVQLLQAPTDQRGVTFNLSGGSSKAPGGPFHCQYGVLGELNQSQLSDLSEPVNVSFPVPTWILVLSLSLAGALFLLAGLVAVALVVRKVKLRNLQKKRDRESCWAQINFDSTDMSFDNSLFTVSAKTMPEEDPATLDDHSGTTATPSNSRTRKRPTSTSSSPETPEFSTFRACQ

T3: human HIDE1-flag (human, UniProt A8MVS5 20-230)
T3 construct: Over-expressed on HEK293, SK-MEL-5, CHO-S and CHO-S OKT3 cells (pMSCV or pcDNA3.1); whole cell extracts in WB; Entry includes the signal peptide; also called hHIDE1 Flag
T3 sequence: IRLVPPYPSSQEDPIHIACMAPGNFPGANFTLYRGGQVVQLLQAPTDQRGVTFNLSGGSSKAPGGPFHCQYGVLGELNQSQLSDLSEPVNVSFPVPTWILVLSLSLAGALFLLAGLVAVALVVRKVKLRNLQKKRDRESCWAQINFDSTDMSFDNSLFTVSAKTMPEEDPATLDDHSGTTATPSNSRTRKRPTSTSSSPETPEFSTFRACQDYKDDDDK

B1: CPA.12.014 human IgG4 (antibody, V domains shown)
VH: QVTLKESGPALVTPTQNLTLTCTVSGGSISSSSYYWGWIRQPPGKGLEWIGSIYYSGSTYYNPSLKSRVTISVDTSKNQFSLKLSSVTAADTAVYYCARRRNSSGWFYFDYWGQGTLVTVSS
VL: QSVLTQPPSVSGAPRQRVTISCSGSRSNIGDNAVNWYQHPPGKAPKLLIYYDDLLPSGVSDRFSGSKSGTSASLAISGLQSEDEADYYCATWDDSLNGHVFGTGTKLTVLG
notes: also called CPA.12.014-H4
B2: CPA.12.015 human IgG4 (antibody, V domains shown)
VH: QVQLQESGPGLVKPSETLSLTCTVSGGSISSSSYYWGWIRQPPGKGLEWIGSIYYSGSTHYNPSLKSRVTISVDTSKNQFSLKLSSVTAADTAVYYCARVYYGSGTGGAFDIWGQGTMVTVSS
VL: QSVLTQPPSVSGAPGQRVTISCTGSSSNIGAAYDVHWYQQLPGTAPKLLIYGDTIRPSGVPDRFSGSKSGTSASLAITGLQAEDEADYYCQSYDSSLSGSWVFGGGTQLTVLG
notes: also called CPA.12.015-H4
B3: αhHIDE1_AbD25753_hIgG1_Ser_mAb (antibody, V domains shown)
VH: EVQLVQSGAEVKKPGESLKISCKGSGYSFTNYWIHWVRQMPGKGLEWMGIIDPGNSFTRYSPSFQGQVTISADKSISTAYLQWSSLKASDTAMYYCARGDGLYGGSDGYSMGGFDNWGQGTLVTVSS
VL: DIQMTQSPSSLSASVGDRVTITCRASQTIWNYLAWYQQKPGKAPKLLIYDASNLQSGVPSRFSGSGSGTDFTLTISSLQPEDFATYYCQQYSHFPHTFGQGTKVEIK
B4: αhHIDE1_AbD25760_hIgG1_Ser_mAb (antibody, V domains shown)
VH: QVQLVQSGAEVKKPGSSVKVSCKASGGTFSDYAINWVRQAPGQGLEWMGGIIPNFGTANYAQKFQGRVTITADESTSTAYMELSSLRSEDTAVYYCARGMRSLGGLSYYFDLWGQGTLVTVSS
VL: B3 VL with T28S, W30N, N31S, A34N, D50A, N53S, S92I, F94Y, H96I
notes: also called AB-510; Ab-510
B5: αhHIDE1_AbD25754_hIgG1_Ser_mAb (antibody, V domains shown)
VH: QVQLVQSGAEVKKPGASVKVSCKASGYTFSGYGMHWVRQAPGQGLEWMGIISPSNGNTNYAQKFQGRVTMTRDTSISTAYMELSRLRSEDTAVYYCAREVYYGLDVWGQGTLVTVSS
VL: DIQMTQSPSSLSASVGDRVTITCRASQSISSWLNWYQQKPGKAPQLLIYGASSLQSGVPSRFSGSGSGTDFTLTISSLQPEDFATYYCQQYISIPITFGQGTKVEIK
B6: αhHIDE1_AbD25755_hIgG1_Ser_mAb (antibody, V domains shown)
VH: QVQLVQSGAEVKKPGSSVKVSCKASGGTFSSYAISWVRQAPGQGLEWMGGIVPKFGTAYYAQKFQGRVTITADESTSTAYMELSSLRSEDTAVYYCARENLVYSAIAIWGQGTLVTVSS
VL: B5 VL with S28D, S31N, Q45K, Y91V, I92T, I94T, I96F

For the first test, the target named is T1, mouse HIDE1. The test can be described thus: FACS on 293T-moHIDE1 cells, human IgG4. The method, then:
(§1) FACS screening of reformatted IgG4 antibodies: The cell lines described in paragraph [001066] (“FACS screening of PPE”) were mixed with FACS buffer containing the purified anti-HIDE1 IgGs or isotype controls. […] Cells were washed again and fluorescence was detected using an Intellicyt HTFC screening system (Intellicyt). Data were analyzed using FCS Express (DeNovo) and plotted for affinity calculations (KD) in GraphPad Prism (GraphPad Software, Inc.). Note that each anti-HIDE1 antibody was tested over a titration range from 0-80 μg/mL.
(§2) Overview of FACS binding results for human IgG4 antibodies reformatted from Fab screening hits. […] IgGs from the same H-CDR3 family are indicated by the same color, either blue or green. CPA.12.003 & CPA.12.008 have identical heavy chain CDR-3 regions and minor differences in framework regions or other CDRs. The same holds for CPA.12.004 & CPA.12.013. N.B. not binding.
For the molecule B1, the binding result is “no binding (tested: titration 0-80 µg/mL)”.
For the molecule B2, the binding result was “no binding (tested: titration 0-80 µg/mL)”.

A further test deals with T2, human HIDE1. Put plainly: FACS titration on 293T-huHIDE1 cells, human IgG4 (preliminary FACS KD). The method, then: as §1, §2
As usually defined, the Kd is the free concentration of one partner at which half of the binding sites on the other are occupied at equilibrium, for simple one-to-one binding. In turn, B1 displayed a dissociation constant Kd of 13 nM.
In turn, B2 yielded a Kd of 11 nM.

Another test has as its target T3, human HIDE1-flag. Put plainly: FACS titration on CHO-S cells over-expressing human HIDE1 Flag (curves in FIG. 96A). The method, then: (§3) FIG. 96: Affinity measurements using FACS application for the anti-human HIDE1 reformatted Fab's on CHO-S cells over-expressing human HIDE1 Flag protein. (A)CHO-S cells over-expressing the human HIDE1 Flag (circle dots) or HEK293 transduced with empty vector (square dots) were analyzed by FACS using Serotec anti-Human HIDE1 reformatted antibodies (1-5) in 7 concentrations-series dilution 1:3, 10-0.01 μg/ml. Detection was carried out using Goat Anti Human-PE secondary Ab. (B) Summary table of Serotec anti-human HIDE1 reformatted antibodies 1-5 FACS analysis, the Geo mean ratio of HEK293 cells over-expressing the human HIDE1 Flag/HEK293 transduced with empty vector and the cross reactive validation, the Geo-mean ratio of HEK293 cells over-expressing the mouse/cyno HIDE1 Flag/HEK293 transduced/transfected with empty vector. And Kd (nM) for each reformatted Fab.
The affinity The affinity measurements of the reformatted Serotec's Ab's (full hIgG1 Abs) against human HIDE1, using FACS application were tested using CHO-S cell over-expressing human HIDE1. CHO-S cells transduced with an empty vector were used as a negative control.
As shown in FIG. 96. the binding of 5 out of 5 anti-human HIDE1 reformatted Ab's (1-5) to the CHO-S cells over-expressing human HIDE1 Flag protein (circle dots) is higher than the binding of these reformatted Ab's to the empty vector cells (square dots). Two of the five antibodies (2 and 3) reaches saturation at the concentrations that were measured. The Kd value and R square are represented in the figure.
B3 had a Kd of 10.8 nM.
Still for that read-out and setting: to B4 belongs 96.7 nM; to B5, 9.85 nM; to B6, 45.4 nM.

The next test has as its target T3, human HIDE1-flag. The test can be described thus: FACS, Geo mean ratio of HEK293 cells over-expressing human HIDE1 Flag to HEK293 empty vector, antibody 10 ug/ml. The method, then:
as §3
The performance of the reformatted Serotec's antibodies against human HIDE1, in FACS application were tested using HEK293 cell over-expressing human HIDE1 Flag, mouse HIDE1 or cyno HIDE1. HEK293 cells transduced/transfected with an empty vector were used as a negative control
(In general: A flow cytometer gives signals particle by particle.)
B3: the “rMFI OX/EV, 10ug/ml, hHIDE1” value stood at 276.
Take B4: the “rMFI OX/EV, 10ug/ml, hHIDE1” value stood at 117.
In the case of B5, the “rMFI OX/EV, 10ug/ml, hHIDE1” value turned out to be 270.
For the molecule B6, the “rMFI OX/EV, 10ug/ml, hHIDE1” value was found to be 236.
